Here are results for one substance from publication PMC8945615.

For the assay, the target named is soluble human fibrin (human) (UniProt P02679). Briefly: SPR.
UniProt P02679, sequence (P02679 whole entry, looked up, tested part not stated): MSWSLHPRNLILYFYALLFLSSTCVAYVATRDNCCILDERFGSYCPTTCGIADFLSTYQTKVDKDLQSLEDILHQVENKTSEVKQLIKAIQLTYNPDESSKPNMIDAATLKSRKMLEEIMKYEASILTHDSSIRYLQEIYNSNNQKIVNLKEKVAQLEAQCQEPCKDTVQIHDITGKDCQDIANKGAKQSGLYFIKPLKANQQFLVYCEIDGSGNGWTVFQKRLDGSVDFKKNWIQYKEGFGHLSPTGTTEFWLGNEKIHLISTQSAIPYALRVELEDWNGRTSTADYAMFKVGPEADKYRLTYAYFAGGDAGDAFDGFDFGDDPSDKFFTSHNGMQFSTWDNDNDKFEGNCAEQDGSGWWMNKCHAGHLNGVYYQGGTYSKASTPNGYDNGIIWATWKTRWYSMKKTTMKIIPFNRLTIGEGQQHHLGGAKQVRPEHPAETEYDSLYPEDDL

For “full-length, purified αIIbβ3 (from UniProt P08514 32-1039; P05106 27-788) (receptor)”, the KD2 (heterogeneous ligand model) was 3.79e-07; the KD2 (heterogeneous ligand model, primed with PT25-2) is 1.37e-07; the Kd1 (heterogeneous ligand model) turned out to be 1.47e-07; the Kd1 (heterogeneous ligand model, primed with PT25-2) came to 4.78e-08. In addition, the fold increase of ka1 on priming with PT25-2 (against unprimed αIIbβ3) stood at 3 fold, the ka1 (heterogeneous ligand model) stood at 13400 and the kd1 (heterogeneous ligand model) came out at 0.00196.
